Data on four molecules can be found in patent publication US20200261603A1 (Astellas, published 2020).

Numbering of substitutions follows the chain as printed.

Assay [1] concerns the target T1, human cancer-specific MUC1 (human, UniProt P15941 24-1255, cancer-specific incomplete O-glycosylation (T, Tn, 2,3ST) of threonine at position 9 of the 20-amino acid tandem repeat … (SEQ ID NO: 15), as the background describes it).
T1 construct: whole, on cells; also called Mucin 1; human MUC1
In words: Cell ELISA on formalin-fixed T-47D cells, HRP anti-human Igκ, luminescence.

Assay [2] has as its target T1, human cancer-specific MUC1. The assay can be described thus: immunostaining of a human bladder cancer tissue array, 0.25 µg/mL primary antibody, Polymer-HRP/DAB.

B1: P10-2 Fab (Fab, V domains shown)
VH: QVQLVQSGAEVKKPGASVKVSCKASGYTFTNYGLSWVRQAPGQGLEWMGENHPGSGIIYHNEKFRGRVTLTADRSTSTAYMELSSLRSEDTAVYYCARSSGTRGFDYWGQGTLVTVSS
VL: DVVMTQTPLSLSVTPGQPASISCRSSQSIVHSNGNTYLEWYLQKPGQSPQLLIYRVSNRFSGVPDRFSGSGSGTDFTLKISRVEAEDVGVYYCFQGSHGPWTFGQGTKLEIKR
modifications: heavy chain N-terminal glutamine was modified into pyroglutamic acid in a great majority of purified antibodies
notes: expressed in Expi293F cells; also called anti-human MUC1 antibody Fab fragment P10-2
With B1, the “fold binding activity compared to 1B2 Fab” value in assay [1] was ≥ 10 times (vs 1B2 Fab).

B2: mouse chimeric P10-2 IgG (antibody, V domains shown)
VH: B1 VH
VL: B1 VL
notes: Antibody in which the VH and VL domains of P10-2 Fab were fused with mouse IgG2a CH1 to CH3 domains and a mouse κ chain CL domain; not shown: mouse IgG2a CH1 to CH3 domains; mouse κ chain CL domain
As for B2, the binding result in assay [2] is on record as “binds”.

B3: P10-1 Fab (Fab, V domains shown)
VH: B1 VH with D106A
VL: B1 VL
notes: expressed in Expi293F cells; also called anti-human MUC1 antibody Fab fragment P10-1
Turning to B3, the “fold binding activity compared to 1B2 Fab” value in assay [1] is ≥ 10 times (vs 1B2 Fab).

B4: P10-1 Fab Dye (Fab, V domains shown)
VH: B1 VH with D106A
VL: B1 VL
modifications: IRDye800CW (NHS ester) on Lys of the Fab fragment; number and positions not stated
notes: also called IRDye800CW-labeled P10-1 Fab
Turning to B4, the binding result in assay [1] is reported as “binds”.
